The Kd is the concentration at which binding is half-saturated. A lower Kd goes with a tighter complex. In general, stoichiometry N refers to a count of units in the complex or per binding partner.

From PMC2757928 come the findings set out here.

Test [1] concerns the target IRF5 (222-467) S425D (human). The test can be described thus: ITC. In general terms: ITC needs no label: the signal is the heat of the interaction.
Test [2] deals with IRF5 (222-467) S421D (human). The test can be described thus: ITC.
The target of test [3] is IRF5 (222-467) S430D (human). The test can be described thus: ITC.
Test [4] deals with IRF5 (222-467) S457D (human). The test can be described thus: ITC.
Test [5] deals with IRF5 (222-467) S436D (human). The test can be described thus: ITC.
In test [6] the target is IRF5 (222-467) S427D (human). The test can be described thus: ITC.
Test [7] deals with IRF5 (residues 222-467) (human). The test can be described thus: ITC.
Test [8] deals with IRF5 (222-467) S430D (human). The test can be described thus: AUC.

Take “CBP (residues 2067-2112) (from UniProt Q92793 2067-2112) (domain or fragment)”: the equilibrium dissociation constant (Kd) was determined as 710 nM in test [1]; 2280 nM in test [2]; 560 nM in test [3]; 2410 nM in test [4]; 670 nM in test [5]; 960 nM in test [6]. Also, the dissociation constant Kd in test [7] was determined as 1640 nM. Further, the dH in test [1] was -13.3 kcal/mol; in test [2] it was -6.4 kcal/mol; in test [3], -15.2 kcal/mol; in test [4], -10.3 kcal/mol; in test [5], -6.8 kcal/mol; in test [6] it was -12.9 kcal/mol. The substance also gave a dH in test [7] of -14.4 kcal/mol. The stoichiometry N in test [1] was 1.04; in test [2], 1.03; in test [3], 1.02; in test [4], 1.08; in test [5], 1.07; in test [6], 0.98. In test [7], the stoichiometry N stood at 1.05.

For the substance “IRF5 (222-467) S430D (domain or fragment)”, the stoichiometry N in test [8] is 2.
